In US20220144937A1 (JIANGSU HENGRUI MEDICINE, published 2022):
Numbering of substitutions follows the chain as printed.

T1: human IL-5 with his-tag (rhIL-5-his) (human, UniProt P05113 20-134)
T1 sequence: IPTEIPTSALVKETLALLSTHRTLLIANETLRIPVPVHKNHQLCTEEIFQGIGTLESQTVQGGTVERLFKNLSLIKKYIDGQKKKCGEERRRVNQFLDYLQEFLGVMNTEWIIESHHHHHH

T2: cyno IL-5 with his-tag (cyno (paragraph 156 says rhesus), UniProt P48093 20-134 (rhesus entry))
T2 construct: also called rhesus IL-5 with His-tag; monkey IL-5
T2 sequence: T1 sequence with T7A, D80G

B1: Hu39D10 (antibody, human IgG4 S228P, kappa, V domains shown)
VH: EVQLVESGGGLVQPGGSLRLSCAVSGLSLTSNSVNWIRQAPGKGLEWVGLIWSNGDTDYNSAIKSRFTISRDTSKSTVYLQMNSLRAEDTAVYYCAREYYGYFDYWGQGTLVTVSS
VL: DIQMTQSPSSLSASVGDRVTITCLASEGISSYLAWYQQKPGKAPKLLIYGANSLQTGVPSRFSGSGSATDYTLTISSLQPEDFATYYCQQSYKFPNTFGQGTKVEVKR
notes: Anti-IL-5 antibody of WO2012083370A1, used as positive control; also called positive control; positive antibody
B2: h1780-017 (antibody, human IgG1, kappa, V domains shown)
VH: EVQLVQSGAEVKKPGASVKVSCKASGYTFTEYLIHWVRQAPGQGLEWIGYINPYSGGTVYNEKFKSRATLTVDKSISTAYMEFSRLRSDDTAVYYCARDGGYSDPLDYWGQGTMVTVSS
VL: DTVLTQSPATLSLSPGERATLSCRASEGLTSYMHWYQQKPGQAPRLLIYKASNLASGVPARFSGSGSGTDFTLTISSLEPEDFATYFCQQNWNDPWTFGGGTKVEIKR
B3: h1773-007 (antibody, human IgG1, kappa, V domains shown)
VH: EVQLVESGGGLVQPGGSLKLSCAASGFTISNTYIHWVKQASGKGLEWIGRIDPAVGDTKHGPKFQGRFTISADDSKNTAYLQMNSLKTEDTAVYYCFRYGIYPDHWGQGTLVTVSS
VL: DIQLTQSPSSLSASVGDRVTITCSASSSVNYIYWYQQKPGKSPKPWIYLTATLASGVPSRFSGSGSGTDFTLTISSLQPEDFATYYCQQWNSYPYTFGGGTKVEIKR
B4: h1779-014 (antibody, human IgG1, kappa, V domains shown)
VH: EVQLVQSGAEVKKPGASVKVSCKASGYTFTDYIIHWVKQAPGQGLEWIGYFNPNSGGSNYNENFKRKATMTADKSISTAYLEFSRLRSEDTAVYYCARRIAWDHWYFDFWGQGTMVTVSS
VL: DIQMTQSPSSLSASVGDRVTITCLASEGISNDVAWYQQKPGKSPKLLVYAASRLQDGVPSRFSGSGSGTDYTFTISSLQPEDIATYYCQQGYKTPLTFGQGTKLEIKR
notes: See recheck
B5: h1706-006 (antibody, human IgG1, kappa, V domains shown)
VH: EVQLVESGGGLVQPGGSLRLSCAASGFTFSHYYMAWVRQAPGKGLEWVSSINYEGNSAYYGDSVKGRFTISRDNSKNTLYLQMNSLRAEDTAVYYCATETLRESLDYWGQGTMVTVSS
VL: DIQMTQSPSSVSASVGDRVTITCRASQDIGNYLSWYQQKPGKSPKLLIYSASNLEVGVPSRFSGSGSGTDFTLTISSLQPEDFATYYCLQHKQFPRTFGGGTKVEIKR
notes: Constant regions as for h1706-003
B6: h1706-007 (antibody, human IgG1, kappa, V domains shown)
VH: B5 VH with S49T, V93T
VL: B5 VL
B7: h1706-004 (antibody, human IgG1, kappa, V domains shown)
VH: B5 VH with S49T, V93T
VL: B5 VL with S43A
B8: h1705-007 (antibody, human IgG1, kappa, V domains shown)
VH: B5 VH with N52S, N56D, S57I, A58T, T98S, E99Q, L105F, M113L
VL: B5 VL with G30A, S50G, A51T, G66R, H91D, Q93E
B9: h1705-011 (antibody, human IgG1, kappa, V domains shown)
VH: B5 VH with S49T, N52S, N56D, S57I, A58T, V93T, T98S, E99Q, L105F, M113L
VL: B5 VL with G30A, L47V, S50G, A51T, G66R, T69S, F71Y, Y87F, H91D, Q93E
B10: h1705-005 (antibody, human IgG1, kappa, V domains shown)
VH: B5 VH with S49T, N52S, N56D, S57I, A58T, V93T, T98S, E99Q, L105F, M113L
VL: B5 VL with G30A, S43A, S50G, A51T, H91D, Q93E
B11: h1706-003 (antibody, human IgG1, kappa, V domains shown)
VH: B5 VH
VL: B5 VL with S43A
B12: h1705-004 (antibody, human IgG1, kappa, V domains shown)
VH: B5 VH with N52S, N56D, S57I, A58T, T98S, E99Q, L105F, M113L
VL: B5 VL with G30A, S43A, S50G, A51T, H91D, Q93E
B13: h1705-010 (antibody, human IgG1, kappa, V domains shown)
VH: B5 VH with N52S, N56D, S57I, A58T, T98S, E99Q, L105F, M113L
VL: B5 VL with G30A, L47V, S50G, A51T, G66R, T69S, F71Y, Y87F, H91D, Q93E
B14: mAb1780 (antibody, V domains shown)
VH: QVKLLQSGAALVKPGDSVKMSCKASDYTFTEYLIHWVKQSQGRSLEWIGYINPYSGGTVYNEKFKSKATLTVDKFSSTAYMEFRRLTFEDSAIYYCARDGGYSDPLDYWGQGVMVTVSS
VL: DTVLTQSPALAVSPGERVSISCRASEGLTSYMHWYQQKPGQQPKLLIYKASNLASGVPARFSGSGSGTDFTLTIDPVEADDAATYFCQQNWNDPWTFGGGTKLELK
notes: Murine hybridoma antibody
B15: mAb1773 (antibody, V domains shown)
VH: EVQLQQSLAELVRPGASVTLSCTASGFNIKNTYIHWVKQRPEQGLEWIGRIDPANGDTKHGPKFQGKATITADTSSNTAYLQFSSLTSEDTAIYYCFRYGIYPDHWGQGTPLTVSS
VL: QIVLTQSPALMSASPGEKVTMTCSASSSVNYIYWYQQKPRSSPKPWIYLTATLASGVPARFSGSGSGTSFSLTISRMEAEDAATYYCQQWNSYPYTFGGGTKLEIE
notes: Murine hybridoma antibody
B16: mAb1779 (antibody, V domains shown)
VH: QVKLLQSGAALVKPGDSVKMSCKASGYTFTDYIIHWVKQSHGKSLEWIGYFNPNSGGSNYNENFKRKATLTADKSSSTAYLEFSRVTSEDSAIYYCGRRIAWDHWYFDFWGPGTMVTVSS
VL: DIQMTQSPASLSASLGETVSIECLASEGISNDVAWYQQKSGRSPQLLVYAASRLQDGVPSRFSGSGSGTRYFFKISGMQPEDEADYFCQQGYKTPLTFGSGTKLEIK
notes: Murine hybridoma antibody
B17: h1705-006 (antibody, human IgG1, kappa, V domains shown)
VH: B5 VH with N52S, N56D, S57I, A58T, T98K, E99Q, L105F, M113L
VL: B5 VL with G30A, S50G, A51T, G66R, H91D, Q93E
B18: h1705-009 (antibody, human IgG1, kappa, V domains shown)
VH: B5 VH with N52S, N56D, S57I, A58T, T98K, E99Q, L105F, M113L
VL: B5 VL with G30A, L47V, S50G, A51T, G66R, T69S, F71Y, Y87F, H91D, Q93E
B19: h1705-003 (antibody, human IgG1, kappa, V domains shown)
VH: B5 VH with N52S, N56D, S57I, A58T, T98K, E99Q, L105F, M113L
VL: B5 VL with G30A, S43A, S50G, A51T, H91D, Q93E

What follows are molecules tested against T1, human IL-5 with his-tag (rhIL-5-his) (assay: cell-based or functional assay).

IC50 of blocking IL-5 induced eosinophil adhesion	Molecule
0.0118 µg/mL	B1
0.0212 µg/mL	B2

Target: T1, human IL-5 with his-tag (rhIL-5-his)
Experiment: cell-based or functional assay
Remark: another data set of the same source

IC50 of inhibition of IL-5 induced TF1 cell proliferation	Molecule
0.3 nM	B1
0.38 nM	B3
0.2 nM	B4
0.34 nM	B5
0.28 nM	B6
0.3 nM	B7
0.25 nM	B8
0.28 nM	B9
0.3 nM	B10
0.31 nM	B11
0.3 nM	B12
0.3 nM	B13
0.16 nM	B2

What follows are molecules tested against T1, human IL-5 with his-tag (rhIL-5-his) (assay: Biacore).
Description: (§1) The affinity of the murine IL-5 antibody to be tested with human IL-5 was measured by Biacore T200 (GE) instrument.
(§2) The protein A biosensor chip was used to affinity capture of the molecules to be tested, and then the antigen (recombinant human and cyno IL-5 prepared in Example 1) flowed through the surface of the chip, and the reaction signal was detected in real time with the Biacore T200 instrument to obtain the binding and dissociation curves. After the dissociation of each experimental cycle was completed, the biosensor chip was washed and regenerated with glycine-hydrochloric acid regeneration solution (pH 1.5). BIA evaluation version 4.1 GE software was used to fit the data against (1:1) Langmuir model, and the affinity value was obtained and shown in Table 13.

Kd	Molecule
0.0899 nM	B14
0.129 nM	B15
0.458 nM	B16

The molecules below were run against T1, human IL-5 with his-tag (rhIL-5-his) (assay: Biacore T200, antibody captured on protein A chip, antigen in flow, 1:1 Langmuir).
Description: The affinity of the humanized IL-5 antibody to be tested with human IL-5 was measured by Biacore T200 (GE) instrument.
as §2, with “(prepared” for “(recombinant human and cyno IL-5 prepared”, “14.” for “13.”

Kd	Molecule
0.207 nM	B3
0.412 nM	B4
0.0173 nM	B5
0.0221 nM	B8
0.023 nM	B9
0.0216 nM	B10
0.0189 nM	B11
4.11 nM	B17
4.55 nM	B18
0.0214 nM	B12
3.35 nM	B19
0.0205 nM	B13
0.0778 nM	B2

Each molecule was assayed against T1, human IL-5 with his-tag (rhIL-5-his) (assay: FACS blocking: biotin-IL-5 (100 ng/ml) binding to IL-5Rα/β-CHOS cells, antibody diluted).
Description: Particular method was as follows: CD-CHO comprising […] and […] zeozin was used to culture CHO-S-IL-5Rα and β. During cell culture, the concentration should not exceed 3×10⁶ cells/ml. IL-5Rα/β-CHOS cells in good condition were centrifuged (at 1000 rpm, 5 min), and washed once with 10% FBS in PBS, and the cells were counted, the cell concentration was adjusted to 4×10⁶ cells/ml, and 25 μl was taken out and added into a round-bottom 96-well plate. The antibody to be tested was diluted with PBS solution comprising 10% FBS. The initial concentration was 200 μg/ml, and diluted at 1:10 for 8 gradient dilutions. 25 μl of 100 ng/ml IL-5 labeled by a biotin labeling kit (Tojin Chemical, LK03) was added, and fully mixed with 50 μl of diluted antibody at each concentration, and added into 96-well plate that has been added with cells, and incubated at 4° C. for 1 hour. After the incubation, the sample was centrifuged at 4° C. (400 g, 5 min), and the supernatant was removed, the plated was washed with 200 μl of pre-cooled PBS by centrifugation, repeated for twice; PE-Avidin secondary antibody diluted at 1:1333 was added and incubated in the dark at 4° C. for 40 min, centrifuged at 4° C.

IC50	Molecule
8.78 µg/mL	IgG (antibody)
0.0251 µg/mL	B1
0.0496 µg/mL	B4
0.016 µg/mL	B2

Each molecule was assayed against T2, cyno IL-5 with his-tag (assay: Biacore T200, antibody captured on protein A chip, antigen in flow, 1:1 Langmuir).
Description: as §1, §2

Kd	Molecule
0.312 nM	B14
0.476 nM	B15
9.98 nM	B16

Target: T1, human IL-5 with his-tag (rhIL-5-his)
Experiment: as above
Remark: another data set of the same source
Description: as §1, §2

Kd	Molecule
0.0899 nM	B14
0.129 nM	B15
0.458 nM	B16
